Test results taken from patent publication US20220332804A1 (CSL INNOVATION, published 2022).
Positions count from the first letter of the chain named.

Experiments:
Assay in all cases: SPR, KD relative to WT C2;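 further: biacore SPR at 37 °C, anti-C2 mAbs captured via immobilised goat anti-human IgG, C2 alanine or serine surface mutants as analytes, 1:1 model fitted, double-referenced sensograms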
human C2 G414A = target: T1, human C2 G414A (human, UniProt P06681 21-752)
T1 sequence: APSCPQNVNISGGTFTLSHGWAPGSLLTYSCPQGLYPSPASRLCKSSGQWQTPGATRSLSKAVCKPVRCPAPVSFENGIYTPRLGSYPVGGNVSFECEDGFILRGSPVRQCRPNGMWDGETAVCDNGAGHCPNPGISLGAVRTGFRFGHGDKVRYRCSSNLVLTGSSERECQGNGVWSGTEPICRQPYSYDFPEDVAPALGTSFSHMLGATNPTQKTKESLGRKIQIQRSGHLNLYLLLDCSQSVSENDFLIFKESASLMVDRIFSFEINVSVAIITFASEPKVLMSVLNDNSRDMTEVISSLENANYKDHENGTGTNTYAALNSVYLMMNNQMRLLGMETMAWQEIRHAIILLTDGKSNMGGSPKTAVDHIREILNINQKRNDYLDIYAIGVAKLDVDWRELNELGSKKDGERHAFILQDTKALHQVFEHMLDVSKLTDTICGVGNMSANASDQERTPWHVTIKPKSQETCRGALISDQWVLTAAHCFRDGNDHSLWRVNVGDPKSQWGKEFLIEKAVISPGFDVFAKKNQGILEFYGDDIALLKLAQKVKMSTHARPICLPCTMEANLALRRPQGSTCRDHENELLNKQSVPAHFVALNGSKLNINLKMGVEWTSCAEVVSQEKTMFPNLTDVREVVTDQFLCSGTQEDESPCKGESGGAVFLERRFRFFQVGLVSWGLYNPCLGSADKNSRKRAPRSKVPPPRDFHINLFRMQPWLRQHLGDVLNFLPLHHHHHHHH

human C2 K715A = target: T2, human C2 K715A (human, UniProt P06681 21-752)
T2 sequence: T1 sequence with A394G, K695A

human C2 I438A = target: T3, human C2 I438A (human, UniProt P06681 21-752)
T3 sequence: T1 sequence with A394G, I418A

human C2 R688A = target: T4, human C2 R688A (human, UniProt P06681 21-752)
T4 sequence: T1 sequence with A394G, R668A

B1: RF16-226 (antibody, human IgG4 S228P, lambda)
heavy: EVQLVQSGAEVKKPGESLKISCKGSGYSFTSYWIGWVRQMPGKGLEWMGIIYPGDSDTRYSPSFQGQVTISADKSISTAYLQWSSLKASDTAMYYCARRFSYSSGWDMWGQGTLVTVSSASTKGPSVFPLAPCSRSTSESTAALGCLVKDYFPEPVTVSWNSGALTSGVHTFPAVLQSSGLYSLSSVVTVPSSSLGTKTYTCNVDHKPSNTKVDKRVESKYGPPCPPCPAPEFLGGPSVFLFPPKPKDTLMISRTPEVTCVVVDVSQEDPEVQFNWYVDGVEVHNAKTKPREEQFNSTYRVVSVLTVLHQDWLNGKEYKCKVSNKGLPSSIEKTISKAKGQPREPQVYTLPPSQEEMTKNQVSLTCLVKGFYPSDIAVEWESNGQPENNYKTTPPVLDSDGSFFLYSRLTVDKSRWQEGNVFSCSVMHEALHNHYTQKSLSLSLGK
light: SYELTQPPSVSVSPGQTARITCSGDALTSKYVAWYQQKSGLAPLLVIYEDTRRPSGIPAKFSGSSSGSVATLTISGAHGDDEADYYCYSTDASGHQRVFGGGTKLTVLSQPKAAPSVTLFPPSSEELQANKATLVCLISDFYPGAVTVAWKADGSPVKAGVETTKPSKQSNNKYAASSYLSLTPEQWKSHRSYSCQVTHEGSTVEKTVAPTECS
notes: pH-dependent anti-C2 antibody from a phage display library; also called WT
Fold diff (human C2 G414A): 1 fold
Fold diff (human C2 K715A): 2 fold
Fold diff (human C2 I438A): 1 fold
Fold diff (human C2 R688A): 3 fold
